Test results reported in article PMC4533773 (International Journal of Molecular Medicine, 2015).

Biological target: T1, AIM (analyte of the BLI experiment) (UniProt Q9QWK4 22-352)
T1 sequence (looked up): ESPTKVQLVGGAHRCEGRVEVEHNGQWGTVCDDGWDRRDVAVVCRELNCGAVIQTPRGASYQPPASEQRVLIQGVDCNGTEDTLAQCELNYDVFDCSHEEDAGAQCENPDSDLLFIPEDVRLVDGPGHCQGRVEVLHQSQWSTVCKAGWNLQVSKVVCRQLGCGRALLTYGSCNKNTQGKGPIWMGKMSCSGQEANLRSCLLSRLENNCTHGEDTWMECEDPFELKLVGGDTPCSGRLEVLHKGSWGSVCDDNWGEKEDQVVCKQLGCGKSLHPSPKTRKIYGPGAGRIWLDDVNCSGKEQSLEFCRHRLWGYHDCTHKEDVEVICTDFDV
Test: BLI

B1: Biotinylated IGFBP-4 (natural protein, UniProt P47879 22-254, looked up)
chain: DEAIHCPPCSEEKLARCRPPVGCEELVREPGCGCCATCALGLGMPCGVYTPRCGSGMRCYPPRGVEKPLRTLMHGQGVCTELSEIEAIQESLQTSDKDESEHPNNSFNPCSAHDHRCLQKHMAKIRDRSKMKIVGTPREEPRPVPQGSCQSELHRALERLAASQSRTHEDLFIIPIPNCDRNGNFHPKQCHPALDGQRGKCWCVDRKTGVKLPGGLEPKGELDCHQLADSFQE
modifications: biotin (labelled after purification; sites not stated)
A Kd of 25.3 nM, a koff of 0.000999 s⁻¹ and a kon of 39600 M⁻¹ s⁻¹ were found for B1 in this work.
